The results in this text go back to publication PMC10165143 (Computational and Structural Biotechnology Journal, 2023).

Test [1] addresses T1, Bmh1 (S. cerevisiae 14-3-3 isoform) (S. cerevisiae, UniProt P29311 1-267).
T1 sequence (looked up): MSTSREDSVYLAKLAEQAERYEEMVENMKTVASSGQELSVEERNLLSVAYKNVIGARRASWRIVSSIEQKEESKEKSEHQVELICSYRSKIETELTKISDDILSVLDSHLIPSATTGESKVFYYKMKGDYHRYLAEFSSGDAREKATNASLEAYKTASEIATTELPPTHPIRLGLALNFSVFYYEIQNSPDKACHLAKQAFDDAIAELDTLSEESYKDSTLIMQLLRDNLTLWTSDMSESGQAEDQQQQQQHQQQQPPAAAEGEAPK
The experiment in a line: fluorescence polarisation. (In general: Polarisation of emitted light reports the rotation of a fluorescent probe.)

The target in test [2] is T2, Bmh2 (S. cerevisiae 14-3-3 isoform) (S. cerevisiae, UniProt P34730 1-273).
T2 sequence (looked up): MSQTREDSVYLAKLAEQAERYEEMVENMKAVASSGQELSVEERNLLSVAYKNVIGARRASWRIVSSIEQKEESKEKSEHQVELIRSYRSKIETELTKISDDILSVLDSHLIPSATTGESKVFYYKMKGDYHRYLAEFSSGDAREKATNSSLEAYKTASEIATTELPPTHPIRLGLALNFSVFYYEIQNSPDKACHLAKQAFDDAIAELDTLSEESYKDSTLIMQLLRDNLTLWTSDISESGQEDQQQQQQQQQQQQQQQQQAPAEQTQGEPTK
Description: fluorescence polarisation.

Where no end group is shown, it is not given here. [ ]: non-standard residue; d: D form. The star is where a group is joined. FITC = O=C1OC2(c3ccc(O)cc3Oc3cc(O)ccc32)c2ccc(NC(=S)*)cc21; pT = C[C@@H](OP(=O)(O)O)[C@H](N)C(=O)O

One may read the Kd as the concentration at which binding is half-saturated. In the case of {FITC}-RRCF[pT]LLFP [FITC-labeled synthetic Trk1 peptide (FITC-RRCFpTLLFP) with phosphorylated Thr900], the figures for the Kd in test [1] and in test [2] were 4 µM and 3.4 µM, respectively.
